Data from PMC3178039 (Journal of cellular physiology, 2011).

Biological target: the molecule itself
Experiment: SDS-PAGE and immunoblot

B1: intestinal lactoferrin receptor (LfR) (receptor, human (endogenous in Caco-2), UniProt Q8WWA0 19-298, looked up)
chain: TDEANTYFKEWTCSSSPSLPRSCKEIKDECPSAFDGLYFLRTENGVIYQTFCDMTSGGGGWTLVASVHENDMRGKCTVGDRWSSQQGSKAVYPEGDGNWANYNTFGSAEAATSDDYKNPGYYDIQAKDLGIWHVPNKSPMQHWRNSSLLRYRTDTGFLQTLGHNLFGIYQKYPVKYGEGKCWTDNGPVIPVVYDFGDAQKTASYYSPYGQREFTAGFVQFRVFNNERAANALCAGMRVTGCNTEHHCIGGGGYFPEASPQQCGDFSGFDWSGYGTHVGYS
stoichiometry N: 3
